Here are results for four molecules from article PMC11661314 (bioRxiv, 2024).

Assay in all cases: ELISA
Background: ELISA stands for enzyme-linked immunosorbent assay.

Experiment [1] deals with T1, E. coli (UTI89) FimH lectin domain truncate (Escherichia coli UTI89, strain).
T1 chain: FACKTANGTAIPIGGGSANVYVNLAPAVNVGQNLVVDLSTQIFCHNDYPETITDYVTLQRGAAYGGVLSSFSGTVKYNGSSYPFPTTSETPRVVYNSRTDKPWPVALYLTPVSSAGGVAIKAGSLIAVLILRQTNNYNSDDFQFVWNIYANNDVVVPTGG

Experiment [2] has as its target T2, K. pneumoniae (TOP52) FimH lectin domain truncate (Klebsiella pneumoniae TOP52, strain).
T2 chain: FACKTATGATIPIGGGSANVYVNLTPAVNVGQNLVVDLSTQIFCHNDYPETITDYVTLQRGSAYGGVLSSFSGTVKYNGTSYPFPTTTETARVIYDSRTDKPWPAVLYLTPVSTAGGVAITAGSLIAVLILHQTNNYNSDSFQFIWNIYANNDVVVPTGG

The target in experiment [3] is T3, E. coli FmlH lectin domain (Escherichia coli UTI89 (strain from PDB …)).
T3 chain: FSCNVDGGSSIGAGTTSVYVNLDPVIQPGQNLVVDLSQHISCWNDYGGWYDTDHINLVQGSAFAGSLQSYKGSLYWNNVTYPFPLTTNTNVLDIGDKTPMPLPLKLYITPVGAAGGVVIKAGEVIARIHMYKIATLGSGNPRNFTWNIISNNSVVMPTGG

Positions count from the first letter of the chain named.

B1: Kp1 2H04 mAb (chimeric murine/human IgG) (antibody, V domains shown)
VH: EVQLQQSGAELVKPGASVKLSCKASGYTFTSYWMHWVKQRPGQGLEWIGLIHPNSSSTYYNEKFKTRATLTVDKSSSTAYMQLSSLTSEDSAVYYCARLGYGNSYWYFDVWGTGTTVTVSS
VL: QIVLTQSPALMAASPGEKVTITCSVSSSISSSNLHWYQQKSETSPKPWIYGTSNLASGVPIRFSGSGSGTSYSLTISSLEAEDAATYYCQQWRSYPWTFGGGTKLEIK
With B1, the binding result in experiment [1] and in experiment [2] was “binds” throughout.

B2: Ec1 F7 mAb (chimeric murine/human IgG) (antibody, V domains shown)
VH: EVQLQQPGPVLVKPGPSVKISCKASGFTFTDYFIHWVKQSHGKSLEWIGLVSPYNGGTYYNQQFKGKATLTVDTSSSTAYMDLNSLTSEDSAVYYCTRLLRGYWYFDVWGTGTTVTVSS
VL: B1 VL with S30G, I61V, L79M, R93S, S94T, W97Y
With B2, the binding result in experiment [1] and in experiment [2] was “binds” in each case.

B3: Ec3 B7 mAb (chimeric murine/human IgG) (antibody, V domains shown)
VH: EVQLQQPGAELVRPGASVKMSCKASGYTFTIYNLHWVKQTPRQGLEWIGTIYPGDGDTSYNQKFKGKATLTVDKSSSTAYMQLSNLTSEDSAVYFCAREGDYGPWFAYWGQGTLVTVSA
VL: QIVLTQSPAIMSASPGEKVTMTCRASSSVSSSYLHWYQQKSGASPKLWIYSSSNLASGVPARFSGSGSGTSYSLTINSVEAEDAATYYCQHYGSYPLTFGGGTKLEIK
B3: the binding result in experiment [1] is reported as “binds”.

B4: Kp2 2C07 mAb (chimeric murine/human IgG) (antibody, V domains shown)
VH: EVKLVESGEGLVKPGGSLKLSCAASGFTFSSYAMSWVRQTPEKRLDWVAYISSGGDHIYYADTVKGRFTISRDNARNTLYLQMSSLKSEDTAMYYCTRDTGYYVSRYFDVWGTGTTVTVSS
VL: DIVMTQSQKFMSTSVGDRVSVTCKASQNVVTNVAWYQQKSGQSPKVVIYSASFRSSGVPDRFTGSGSGTDFTLTISNVQSEDLAEYFCHQYNSHPLTFGGGTKLEIK
Consider B4, for which the binding result was “binds” in experiment [1], “no binding” in experiment [3] and “binds” in experiment [2].
